Test results taken from paper PMC10311653 (2023).

Target: hIL-1βQ15G (human)
Assay: ELISA; apparent Kd

Chain of hIL-1βQ15G (human) (chain, as listed by the source Q15G): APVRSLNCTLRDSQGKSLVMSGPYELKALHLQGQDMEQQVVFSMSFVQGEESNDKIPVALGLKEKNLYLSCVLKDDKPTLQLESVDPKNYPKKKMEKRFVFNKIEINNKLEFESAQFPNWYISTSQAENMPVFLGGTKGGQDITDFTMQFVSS

Kd: 27.3 nM
B1: Q15Kcr-G8-mFc (Fc fusion)
chain 1: EVQLQQSGAELVKPGASVKLSCTASDFNIKDTYIHWVKQRPEQGLEWIGRIDPADGNTKYDPKFQGKATITADTSSNTAYLQLSSLTSEDTAVYYCAIHYYGSFPYWGQGTLVTVSA
chain 2: DIVMTQAHKFMSTSVGDRVSITCQASQDVGTAVAWYQQKPGQSPKLLIYWASTRHTGVPDRFTGSGSGTDFTLTISNVQSEDLADYFCQQYSSYPYTFGGGTKLEIK
